Here are results for 2 molecules from patent publication US7238711.

No end group written: not given here.

For test [1], the target named is Duffy Antigen Receptor for Chemokines (DARC) (human) (UniProt Q16570). Put plainly: DARC binding, Table 18.
The target of test [2] is CCR5 (human) (UniProt P51681). Put plainly: not stated (printed as affinity constant).
Test [3] has as its target CXCR4 (human) (UniProt P61073). Put plainly: not stated (printed as affinity constant).
For test [4], the target named is Duffy Antigen Receptor for Chemokines (DARC) (human) (UniProt Q16570). Put plainly: Duffy binding, against the LFL peptide.
The target of test [5] is chemokine receptors.
The target of test [6] is Duffy Antigen Receptor for Chemokines (DARC) (human) (UniProt Q16570). Put plainly: Duffy binding.
Test [7] addresses T1, Duffy Antigen Receptor for Chemokines (DARC) (human), Q16570.
T1 chain: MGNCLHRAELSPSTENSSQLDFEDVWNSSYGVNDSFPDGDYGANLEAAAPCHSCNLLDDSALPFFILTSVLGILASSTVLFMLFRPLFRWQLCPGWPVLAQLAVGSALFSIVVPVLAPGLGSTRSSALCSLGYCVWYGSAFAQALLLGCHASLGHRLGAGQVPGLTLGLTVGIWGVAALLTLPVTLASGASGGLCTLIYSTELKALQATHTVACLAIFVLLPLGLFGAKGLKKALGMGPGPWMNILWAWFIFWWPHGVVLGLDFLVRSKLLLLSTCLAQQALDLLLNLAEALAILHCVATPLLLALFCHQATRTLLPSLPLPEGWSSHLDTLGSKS
Description: DARC binding.

CCR5 (human), sequence (P51681 whole entry): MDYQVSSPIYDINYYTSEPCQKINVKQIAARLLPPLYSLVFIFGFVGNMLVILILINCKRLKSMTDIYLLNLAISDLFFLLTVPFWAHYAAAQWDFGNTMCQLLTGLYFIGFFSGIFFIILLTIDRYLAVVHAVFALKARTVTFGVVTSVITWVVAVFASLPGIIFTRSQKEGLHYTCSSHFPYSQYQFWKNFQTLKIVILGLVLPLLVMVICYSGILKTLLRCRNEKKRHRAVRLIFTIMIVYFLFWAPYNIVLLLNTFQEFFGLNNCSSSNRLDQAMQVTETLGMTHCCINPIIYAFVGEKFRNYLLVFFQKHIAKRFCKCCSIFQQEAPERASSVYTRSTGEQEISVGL

By Kd is commonly meant the constant that tells how readily two partners part at equilibrium. A lower Kd goes with higher affinity. A word on the IC50: it is the concentration needed to halve the response being measured. Regarding VAEKPCKSSTIRRYS (not fully specified (some residues)) [LRD peptide 2(1-15)[MCP-1]], the DARC binding in test [1] turned out to be 18 µM. Further, the figures for the Kd in test [2], in test [3] and in test [6] were less than 100 nM, less than 100 nM and 25000 nM, respectively. In test [4], the fold decrease in Duffy binding against LFL is 100 fold. Moreover, in test [5], the IC50 is 3000 nM.
With SYRRITSSKSPKEAV (not fully specified) [Ser10 variant of peptide 2(1-15)[MCP-1]], the DARC binding in test [7] lay within 20 to 100 µM.
